The target in this experiment is T1, RIIα binding to AKAP110 (Mus musculus, UniProt P12367).
T1 construct: made in house; host or cells: E. coli
Nature of the experiment: RII overlay binding assay with 32P-labeled RIIα. As to conditions: peptide included in the binding assay at a concentration of 1 μM; results in FIG. 4D. The procedure:
The identity of AKAP110 in the extracts prepared as described above was determine using an RII overlay assay. This assay was based on previous experiments which had shown that PKA anchoring proteins could be specifically detected after electrophoretic separation by overlay with labeled RII subunit of mammalian PKA (see Vijayaraghavan et al., 1997, J. Biol. Chem. 272; 4747-4752). These assays were performed as follows. Polyacrylamide gel electrophoresis containing sodium dodecyl sulfate (SDS/PAGE) was performed as described in Johnson et al. (1997, Devel. Biol. 192: 340-350) and Visconti et al. (1997, Devel. Biol. 192: 351-363). Approximately […] protein per lane was loaded on a 10% gel and electrophoresed overnight at a constant current of 8mA. After electrophoresis, protein bands were transferred to Immobilon P (polyvinylidene difluoride, obtained from Millipore, Bedford, Mass.) as described in the Johnson and Visconti references. […]
The conserved regions of sequence are expected to correspond to functional domains. The portion of the sequence corresponding to the RII binding domain was determined using an RII overlay assay as follows. […] This blot was then hybridized with ^32P-labeled RIIα (results shown in FIG. 4A) or with horse radish peroxidase-conjugated S-protein that detects an S-tag expressed as a fusion protein by the pET30A vector (results shown in FIG. 4B). […]

T1 sequence (P12367 2-401 limits assumed): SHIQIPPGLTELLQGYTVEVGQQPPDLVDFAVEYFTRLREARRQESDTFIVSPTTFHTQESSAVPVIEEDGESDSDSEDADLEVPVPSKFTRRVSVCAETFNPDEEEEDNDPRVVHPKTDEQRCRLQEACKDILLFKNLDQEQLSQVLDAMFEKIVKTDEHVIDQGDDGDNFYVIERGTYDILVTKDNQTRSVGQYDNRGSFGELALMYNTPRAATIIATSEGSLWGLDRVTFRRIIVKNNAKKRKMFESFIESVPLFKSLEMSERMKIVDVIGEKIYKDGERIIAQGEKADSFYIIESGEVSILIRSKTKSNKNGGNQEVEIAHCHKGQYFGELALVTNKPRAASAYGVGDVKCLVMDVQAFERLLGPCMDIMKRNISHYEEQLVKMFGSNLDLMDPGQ

On to SFYANRLTNLVI (listed as Mus musculus), for which the “radiolabeled RIIα binding” value was “prevent radiolabeled RIIα binding”.

The record behind these values is patent US6451528B1, “Sperm-specific AKAP protein genes and uses” (Oregon Health & Sciences University, priority 1999, dated 2002).
